# Assay results from patent US20050112690A1.
# Target: extra-domain B (ED-B) of fibronectin, as present in arteriosclerotic plaque of aorta specimens of WHHL rabbits (rabbit (WHHL rabbit aorta tissue)) (UniProt Q28749)
# Assay: in vitro perfusion (Ussing chamber) of WHHL rabbit aorta specimens with radiolabeled scFv, 20 min at room temperature, gamma counting
# Sequence of UniProt Q28749 (Q28749 1221-1309 limits assumed): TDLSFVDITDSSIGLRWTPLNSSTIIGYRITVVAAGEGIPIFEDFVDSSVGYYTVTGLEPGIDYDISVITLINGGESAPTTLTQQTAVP
substance,measurement,value
125I-labeled L19 derivative ZK212667 (L19) (scFv),rating factor (bound amount on arteriosclerotic vs non-arteriosclerotic aorta sections),2.8
